Results reported in the supplement of paper PMC9732359.
± gives the uncertainty stated by the source.

Experiment: protein stability index of a GFP-peptide fusion (yeast GPS) (PSI 1-4); higher = more stable; sorted into four equal gates, so the index is relative within each strain
Procedure, shortened: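 Sequencing reads from sorted gates were used to score each peptide. The library consisted of tiled 17-residue yeast protein peptides fused downstream of GFP on a Cherry-expressing plasmid, pooled and carried in yeast. Mid-log cultures in leucine-free medium were split into four equal gates by GFP/Cherry ratio, and each gate's plasmids were PCR-amplified and Illumina-sequenced. The protein stability index adds up, over all gates, the read frequency multiplied by the gate number.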

Sequence | protein stability index (doa10∆) | protein stability index (pdr5∆) | protein stability index (san1∆) | protein stability index (ubr1∆)
TRPQMPSRTRETATSER [GRR1] | 2.85 ± 0.062 | 3.12 ± 0.06 | 3.03 ± 0.05 | 3.05 ± 0.036
LLKLIEPYVAYGYPSYS [RPL7A] | 2.07 ± 0.05 | 2.22 ± 0.053 | 2.2 ± 0.056 | 2.07 ± 0.042
TQVNILKENNAILQKSL [YIL149C/MLP2] | 2.44 ± 0.06 | 2.55 ± 0.062 | 2.63 ± 0.076 | 2.65 ± 0.059
KQLIMESQEKYMEPFDL [NSL1] | 3.29 ± 0.072 | 3.31 ± 0.054 | 3.32 ± 0.047 | 3.28 ± 0.039
DVHLLESKVYHKLRNLA [RPN6] | 1.95 ± 0.069 | 2.33 ± 0.086 | 2.17 ± 0.14 | 2.13 ± 0.11
PTFSTHAQLLLSDRITG [PRP8] | 1.7 ± 0.033 | 1.87 ± 0.036 | 1.57 ± 0.051 | 1.95 ± 0.031
PKPDKPSGRTRGRSVMK [ESC2] | 3.14 ± 0.17 | 3.05 ± 0.15 | 3.08 ± 0.098 | 3.7 ± 0.13
SMRIQILRRQAILRQQQ [GAL11] | 3.19 ± 0.29 | 2.98 ± 0.17 | 3.17 ± 0.19 | 
QIISNAHNKPSLFSKIK [YAR002W/NUP60] | 2.94 ± 0.088 | 2.98 ± 0.093 | 2.77 ± 0.071 | 2.94 ± 0.058
SYRNAFTNVLTKYSDVL [YJL039C/NUP192] | 2.12 ± 0.052 | 1.72 ± 0.059 | 2.36 ± 0.066 | 2.13 ± 0.048
GLYKMMEERDGAKFENI [AAR2] | 1.49 ± 0.19 | 1.87 ± 0.12 | 1.68 ± 0.2 | 1.74 ± 0.056
LGIKKEKRIQYAKDILQ [RPB2] | 2.01 ± 0.059 | 2.12 ± 0.061 | 1.64 ± 0.094 | 1.99 ± 0.041
KFPTRKIYMLYSLQPSV [RPC34] |  | 2.13 ± 0.23 |  | 
LRSDFYILANHYLSRVL [YJL039C/NUP192] | 2.81 ± 0.054 | 2.85 ± 0.07 | 2.59 ± 0.07 | 2.44 ± 0.044
LESKMSEVGDAFIFGLQ [SMC3] | 3.29 ± 0.061 | 3.28 ± 0.06 | 3.31 ± 0.041 | 3.34 ± 0.052
TFHHHGRQTVLIKDNSA [SRB2] | 1.92 ± 0.25 | 2.52 ± 0.21 |  | 2.56 ± 0.24
FNLNLPPSSFGRSHTRN [REC8] | 3.35 ± 0.11 | 2.51 ± 0.1 | 3.04 ± 0.058 | 3.27 ± 0.19
TPKGNESEQELSLHTGF [MTR3] | 3.22 ± 0.11 | 3.13 ± 0.1 | 3.18 ± 0.12 | 3.17 ± 0.061
VVESVGAEVDEARINEL [RPP2B] | 3.23 ± 0.11 | 3.21 ± 0.091 | 3.35 ± 0.095 | 3.47 ± 0.15
VERIQKMIEKIEKMSTI [YIL149C/MLP2] | 3.13 ± 0.29 | 3.41 ± 0.14 | 2.81 ± 0.19 | 
DFDESLKYLDDLKAQFQ [RPN9] | 3.02 ± 0.15 | 3.17 ± 0.075 | 3.12 ± 0.098 | 3.11 ± 0.081
IAKLSVIPIRRGYWGTN [RPS2] | 2.02 ± 0.073 | 1.67 ± 0.11 | 1.93 ± 0.19 | 1.76 ± 0.12
SNGFNNVTFGSKKDPRI [YMR153W/NUP53] | 2.77 ± 0.048 | 2.74 ± 0.059 | 2.89 ± 0.045 | 2.87 ± 0.046
YLLSIWVKKFKWAGIKT [CYT1] | 2.38 ± 0.16 | 1.57 ± 0.099 | 2.17 ± 0.098 | 2.29 ± 0.17
LSQNESTRASTVPNLPT [ISW2] | 2.17 ± 0.056 | 2.5 ± 0.063 | 2.46 ± 0.045 | 2.6 ± 0.048
AFFREKGLVSQQLDSFN [RPB2] | 3.11 ± 0.13 | 3.17 ± 0.19 | 2.96 ± 0.1 | 2.97 ± 0.087
THRNKDGTGVRVIVAGT [FAS1] | 2.16 ± 0.26 | 1.59 ± 0.082 | 1.62 ± 0.21 | 1.6 ± 0.15
